Among the data in US20160347808A1 (IMMATICS BIOTECHNOLOGIES, published 2016) are peptide exchange yield values, retold here.

For this assay, the target named is T1, HLA-A*02:01 (peptide-receptive MHC class I monomer from UV-ligand exchange) (human).
T1 construct: Monomers were captured on streptavidin-coated plates
As to the kind of experiment: UV-exchange ELISA (anti-b2m); exchange yield grade: + >=10%, ++ >=20%, +++ >=50%, ++++ >=75%. The text has this:
Candidate peptides for T cell based therapies according to the present invention were further tested for their MHC binding capacity (affinity). The individual peptide-MHC complexes were produced by UV-ligand exchange, where a UV-sensitive peptide is cleaved upon UV-irradiation, and exchanged with the peptide of interest as analyzed. Only peptide candidates that can effectively bind and stabilize the peptide-receptive MHC molecules prevent dissociation of the MHC complexes. To determine the yield of the exchange reaction, an ELISA was performed based on the detection of the light chain (β2m) of stabilized MHC complexes. The assay was performed as generally described in Rodenko et al. (Rodenko et al., 2006).
96 well MAXISorp plates (NUNC) were coated over night with 2 ug/ml streptavidin in PBS at room temperature, washed 4× and blocked for 1 h at 37° C. in 2% BSA containing blocking buffer. Refolded HLA-A*02:01/MLA-001 monomers served as standards, covering the range of 15-500 ng/ml. Peptide-MHC monomers of the UV-exchange reaction were diluted 100 fold in blocking buffer. Samples were incubated for 1 h at 37° C., washed four times, incubated with 2 ug/ml HRP conjugated anti-β2m for 1 h at 37° C., washed again and detected with TMB solution that is stopped with […]. Absorption was measured at 450 nm. Candidate peptides that show a high exchange yield (preferably higher than 50%, most preferred higher than 75%) are generally preferred for a generation and production of antibodies or fragments thereof, and/or T cell receptors or fragments thereof, as they show sufficient avidity to the MHC molecules and prevent dissociation of the MHC complexes.
(In general: In an ELISA, binding on a coated surface is turned into a signal by an enzyme label.)

Consider RLLHEVQEL [peptide RLLHEVQEL (SEQ ID NO 163)], for which the peptide exchange yield fell in the range of 50 to 75%. In the case of RLLGEEVVRV [peptide RLLGEEVVRV (SEQ ID NO 155)], the peptide exchange yield is 50 to 75%. As for GLLEARGILGL [peptide GLLEARGILGL (SEQ ID NO 166)], the peptide exchange yield lay within 50 to 75%. Consider VLVDDDGIKVV [peptide VLVDDDGIKVV (SEQ ID NO 159)], for which the peptide exchange yield is 20 to 50%.

In the case of KLPSETIFVGC [peptide KLPSETIFVGC (SEQ ID NO 154)], the peptide exchange yield fell in the range of 50 to 75%. For RLLENMTEVV [peptide RLLENMTEVV (SEQ ID NO 148)], the peptide exchange yield lay in the range of 50 to 75%. RLQETEGMVAV [peptide RLQETEGMVAV (SEQ ID NO 171)]: the peptide exchange yield fell in the range of 20 to 50%. As to KLLAVIHEL (also called RAD54B-002) [peptide KLLAVIHEL (SEQ ID NO 152)], the peptide exchange yield fell in the range of 20 to 50%. The value for LLLDTVTMQV [peptide LLLDTVTMQV (SEQ ID NO 172)] was 50 to 75%; that for RLADLEALKV [peptide RLADLEALKV (SEQ ID NO 150)] was 50 to 75%. Take YQFDKVGILTL [peptide YQFDKVGILTL (SEQ ID NO 149)]: the peptide exchange yield was 50 to 75%. Next, SLMMTIINL [peptide SLMMTIINL (SEQ ID NO 156)]: at least 75%; SVIDHIHLISV [peptide SVIDHIHLISV (SEQ ID NO 167)]: 50 to 75%; KLMDYIDEL [peptide KLMDYIDEL (SEQ ID NO 162)]: 50 to 75%. On to ILFSEDSTKLFV [peptide ILFSEDSTKLFV (SEQ ID NO 153)], for which the peptide exchange yield lay within 50 to 75%. For the molecule VLVDQSWVL [peptide VLVDQSWVL (SEQ ID NO 16)], the peptide exchange yield lay within 50 to 75%. Next, GLLDPSVFHV [peptide GLLDPSVFHV (SEQ ID NO 158)]: 50 to 75%; ALAGGITMV [peptide ALAGGITMV (SEQ ID NO 170)]: 50 to 75%. The value for GLIRFPLMTI [peptide GLIRFPLMTI (SEQ ID NO 168)] was 50 to 75%; that for RLLDFPEAMVL [peptide RLLDFPEAMVL (SEQ ID NO 165)] was at least 75%; that for SAQGSDVSLTACKV [peptide SAQGSDVSLTACKV (SEQ ID NO 151)] was 50 to 75%. For YLAHFIEGL [peptide YLAHFIEGL (SEQ ID NO 169)], the peptide exchange yield is 50 to 75%. The value for KLLEFDQLQL [peptide KLLEFDQLQL (SEQ ID NO 160)] was 50 to 75%; that for FLKNELDNV [peptide FLKNELDNV (SEQ ID NO 161)] was 50 to 75%.

Consider KMLDEILLQL [peptide KMLDEILLQL (SEQ ID NO 164)], for which the peptide exchange yield is at least 75%. For SLIERDLKL [peptide SLIERDLKL (SEQ ID NO 157)], the peptide exchange yield was 50 to 75%. As to LQLDKEFQL [peptide LQLDKEFQL (SEQ ID NO 15)], the peptide exchange yield fell in the range of 50 to 75%.
